Data from patent US20070185028A1 (published 2007).
No end group written: not given here.

Experiments:
Porcine Citrate synthase [1] = biological target: T1, Porcine Citrate synthase (porcine, UniProt P00889 28-464); assay: protein pin array ELISA, A450; listed as peak peptide with unheated and pre-heated target
T1 construct: also called CS
T1 sequence (looked up): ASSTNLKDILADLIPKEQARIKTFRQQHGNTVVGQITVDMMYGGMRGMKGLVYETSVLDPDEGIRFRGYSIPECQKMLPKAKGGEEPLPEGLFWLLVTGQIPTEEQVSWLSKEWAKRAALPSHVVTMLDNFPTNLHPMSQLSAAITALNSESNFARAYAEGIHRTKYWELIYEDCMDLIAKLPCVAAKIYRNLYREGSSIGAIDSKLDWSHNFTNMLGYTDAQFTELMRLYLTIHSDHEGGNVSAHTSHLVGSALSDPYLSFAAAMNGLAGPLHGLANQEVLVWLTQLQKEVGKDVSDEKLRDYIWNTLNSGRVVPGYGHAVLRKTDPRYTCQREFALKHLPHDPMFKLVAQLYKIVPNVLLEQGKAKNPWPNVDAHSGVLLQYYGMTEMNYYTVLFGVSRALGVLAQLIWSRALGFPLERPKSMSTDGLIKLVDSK

transthyretin = transthyretin (UniProt P02766 21-147); assay: cell-based or functional assay
Human γD crystallin [2] = biological target: T2, Human γD crystallin (human, UniProt P07320 2-174, limits assumed); assay: protein pin array ELISA, A450; listed as peak peptide with unheated and pre-heated target
T2 construct: Used unheated (23° C) and pre-heated (45° C, 15 min)
T2 sequence (looked up): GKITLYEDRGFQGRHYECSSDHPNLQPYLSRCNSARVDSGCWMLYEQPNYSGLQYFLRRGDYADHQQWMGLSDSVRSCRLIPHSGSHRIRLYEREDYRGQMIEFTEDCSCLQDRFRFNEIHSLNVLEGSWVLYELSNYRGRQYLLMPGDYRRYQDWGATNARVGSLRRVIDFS

Human γD crystallin [3] = biological target: T2, Human γD crystallin; assay: cell-based or functional assay
beta amyloid = beta amyloid (UniProt P05067 672-713, limits assumed); assay: cell-based or functional assay
Amyloid-beta (1-42) = Amyloid-beta (1-42) (UniProt P05067); assay: cell-based or functional assay
β2-microglobulin = β2-microglobulin (UniProt P61769 21-119); assay: cell-based or functional assay
Bovine βH crystallin = Bovine βH crystallin (bovine); assay: cell-based or functional assay
[4] = biological target: Equine Alcohol dehydrogenase (equine, UniProt P00327 2-375); assay: cell-based or functional assay
Porcine Citrate synthase [5] = biological target: T1, Porcine Citrate synthase; assay: protein pin array

β2-microglobulin, sequence (P61769 21-119 limits assumed): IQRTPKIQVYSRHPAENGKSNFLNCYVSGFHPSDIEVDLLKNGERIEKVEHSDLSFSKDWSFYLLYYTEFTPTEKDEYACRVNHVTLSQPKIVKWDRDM
Equine Alcohol dehydrogenase, sequence (P00327 2-375 limits assumed): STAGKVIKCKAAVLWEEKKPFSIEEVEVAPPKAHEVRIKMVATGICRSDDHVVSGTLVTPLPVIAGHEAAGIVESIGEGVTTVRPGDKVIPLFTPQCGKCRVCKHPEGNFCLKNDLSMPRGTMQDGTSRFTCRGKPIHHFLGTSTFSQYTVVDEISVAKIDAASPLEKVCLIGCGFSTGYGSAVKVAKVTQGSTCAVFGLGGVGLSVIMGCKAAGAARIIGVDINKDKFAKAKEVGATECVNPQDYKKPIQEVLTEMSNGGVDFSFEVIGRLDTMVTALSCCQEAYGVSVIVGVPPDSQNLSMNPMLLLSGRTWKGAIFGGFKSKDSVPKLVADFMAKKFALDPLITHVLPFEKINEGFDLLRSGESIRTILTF

B1: FISREFHR (peptide)
peptide: FISREFHR
notes: pin-immobilised 8-mer of human αB crystallin; also called peptide 57
Porcine Citrate synthase [1]
  binding result: binds

B2: HGKHEERQ (peptide)
peptide: HGKHEERQ
transthyretin
  TTR fibrillation, ThT fluorescence, 1:1 peptide:TTR (16 µM): ~100 % inhibition

B3: DQFFGEHL (peptide)
peptide: DQFFGEHL
notes: pin-immobilised 8-mer of human αB crystallin; also called peptide 13
Human γD crystallin [2]
  binding result: binds

B4: STSLSPFYLRPPSFLRAP (peptide)
peptide: STSLSPFYLRPPSFLRAP
Human γD crystallin [3]
  Δfluorescence (γD crystallin), Thioflavin T, 72 h at 50° C (no chaperone: 888,803,840): 6.06e+08
Beta amyloid
  Δfluorescence (Aβ), Thioflavin T, 72 h at 50° C (no chaperone: 1,324,974,048): 4.78e+08

B5: RTIPITRE (peptide)
peptide: RTIPITRE
notes: pin-immobilised 8-mer of human αB crystallin; also called peptide 79
Porcine Citrate synthase [1]
  binding result: binds

B6: WIRRPFFP (peptide)
peptide: WIRRPFFP
notes: pin-immobilised 8-mer of human αB crystallin; also called peptide 5
Human γD crystallin [2]
  binding result: binds
Porcine Citrate synthase [1]
  binding result: binds

B7: HEER (peptide)
peptide: HEER
transthyretin
  TTR fibrillation, ThT fluorescence, 1:1 peptide:TTR (16 µM): ~100 % inhibition

B8: PFFPFHSP (peptide)
peptide: PFFPFHSP
notes: pin-immobilised 8-mer of human αB crystallin; also called 13 PFFPFHSP20
Human γD crystallin [2]
  binding result: binds

B9: EFHRKYRI (peptide)
peptide: EFHRKYRI
notes: pin-immobilised 8-mer of human αB crystallin
Human γD crystallin [2]
  binding result: binds

B10: HGKHEERQDE (peptide)
peptide: HGKHEERQDE
Human γD crystallin [3]
  Δfluorescence (γD crystallin), Thioflavin T, 72 h at 50° C (no chaperone: 888,803,840): 7.34e+08
Beta amyloid
  Δfluorescence (Aβ), Thioflavin T, 72 h at 50° C (no chaperone: 1,324,974,048): 7.96e+08
Amyloid-beta (1-42)
  pH induced aggregation of amyloid-beta at pH 5.2, light scattering 360 nm (amyloid-beta alone = 100%): 30 % aggregation

B11: RQDE (peptide)
peptide: RQDE
β2-microglobulin
  β2m fibrillation, ThT fluorescence, 1:1 peptide:β2m (29 µM): ~100 % inhibition

B12: FYLRPPSF (peptide)
peptide: FYLRPPSF
notes: pin-immobilised 8-mer of human αB crystallin; also called peptide 24
Human γD crystallin [2]
  binding result: binds
Porcine Citrate synthase [1]
  binding result: binds

B13: LRAPSWFD (peptide)
peptide: LRAPSWFD
notes: pin-immobilised 8-mer of human αB crystallin; also called peptide 28
Porcine Citrate synthase [1]
  binding result: binds

B14: LTITSSLSDGV (peptide)
peptide: LTITSSLSDGV
Bovine βH crystallin
  protection against thermal aggregation at 50° C, light scattering 340 nm, 50:1 peptide:target: ~30 % protection
Amyloid-beta (1-42)
  pH induced aggregation of amyloid-beta at pH 5.2, light scattering 360 nm (amyloid-beta alone = 100%): 15 % aggregation
[4]
  protection against thermal aggregation at 50° C, light scattering 340 nm, 50:1 peptide:target: ~30 % protection

B15: LTITSSLS (peptide)
peptide: LTITSSLS
modifications: also: covalently bound to polyethylene pin
notes: pin-immobilised 8-mer of human αB crystallin; also called β8
Human γD crystallin [2]
  binding result: binds
Porcine Citrate synthase [1]
  binding result: binds

B16: SFLRAPSW (peptide)
peptide: SFLRAPSW
notes: as for B9
Human γD crystallin [2]
  binding result: binds

B17: LTITSSLSSDGV (peptide)
peptide: LTITSSLSSDGV
Human γD crystallin [3]
  Δfluorescence (γD crystallin), Thioflavin T, 72 h at 50° C (no chaperone: 888,803,840): 6.75e+08
Beta amyloid
  Δfluorescence (Aβ), Thioflavin T, 72 h at 50° C (no chaperone: 1,324,974,048): 3.52e+08

B18: HGFISREF (peptide)
peptide: HGFISREF
notes: pin-immobilised 8-mer of human αB crystallin; also called peptide 56
Human γD crystallin [2]
  binding result: binds

B19: GVLTVNGP (peptide)
peptide: GVLTVNGP
modifications: also: covalently bound to polyethylene pin
notes: pin-immobilised 8-mer of human αB crystallin; also called β9
Human γD crystallin [2]
  binding result: binds
Porcine Citrate synthase [5]
  binding result: binds

B20: FPFHSPSR (peptide)
peptide: FPFHSPSR
notes: pin-immobilised 8-mer of human αB crystallin; also called peptide 8
Porcine Citrate synthase [1]
  binding result: binds

B21: SLSPFYLR (peptide)
peptide: SLSPFYLR
notes: pin-immobilised 8-mer of human αB crystallin; also called peptide 22
Human γD crystallin [2]
  binding result: binds
Porcine Citrate synthase [1]
  binding result: binds

B22: FSVNLDVK (peptide)
peptide: FSVNLDVK
modifications: also: covalently bound to polyethylene pin
notes: pin-immobilised 8-mer of human αB crystallin; also called β3
Human γD crystallin [2]
  binding result: binds
Porcine Citrate synthase [1]
  binding result: binds

B23: EERQDE (peptide)
peptide: EERQDE
transthyretin
  TTR fibrillation, ThT fluorescence, 1:1 peptide:TTR (16 µM): ~100 % inhibition
β2-microglobulin
  β2m fibrillation, ThT fluorescence, 1:1 peptide:β2m (29 µM): ~100 % inhibition

B24: DRFSVNLDVKHFS (peptide)
peptide: DRFSVNLDVKHFS
Human γD crystallin [3]
  Δfluorescence (γD crystallin), Thioflavin T, 72 h at 50° C (no chaperone: 888,803,840): 6.61e+08
Beta amyloid
  Δfluorescence (Aβ), Thioflavin T, 72 h at 50° C (no chaperone: 1,324,974,048): 2.64e+08
Bovine βH crystallin
  protection against thermal aggregation at 50° C, light scattering 340 nm, 50:1 peptide:target: ~30 % protection
Amyloid-beta (1-42)
  pH induced aggregation of amyloid-beta at pH 5.2, light scattering 360 nm (amyloid-beta alone = 100%): 4 % aggregation
[4]
  protection against thermal aggregation at 50° C, light scattering 340 nm, 50:1 peptide:target: ~30 % protection

B25: ERTIPITRE (peptide)
peptide: ERTIPITRE
Human γD crystallin [3]
  Δfluorescence (γD crystallin), Thioflavin T, 72 h at 50° C (no chaperone: 888,803,840): 6.11e+08
Beta amyloid
  Δfluorescence (Aβ), Thioflavin T, 72 h at 50° C (no chaperone: 1,324,974,048): 5.77e+08

B26: EERQ (peptide)
peptide: EERQ
β2-microglobulin
  β2m fibrillation, ThT fluorescence, 1:1 peptide:β2m (29 µM): ~100 % inhibition

B27: IAIHHPWI (peptide)
peptide: IAIHHPWI
notes: pin-immobilised 8-mer of human αB crystallin; also called peptide 2
Human γD crystallin [2]
  binding result: binds

B28: LTVNGPRK (peptide)
peptide: LTVNGPRK
notes: pin-immobilised 8-mer of human αB crystallin; also called peptide 72
Porcine Citrate synthase [1]
  binding result: binds
